Tests used:
Assay type in all cases: in vivo
[1] = system: experimental dry eye (EDE)-induced C57BL/6 mouse model; assay: Malondialdehyde (MDA) by ELISA in cornea, conjunctiva and lacrimal gland; conditions: for MDA efficacy as compared with 0.05% CsA: 10 mg/kg oral
Procedure: (§1) To induce experimental dry eye, 7- to 8-week-old C57BL/6 mice (purchased from Damool Science) were injected subcutaneously with scopolamine hydrochloride at 0.5 mg/0.2 ml three times a day under exposure to a ventilating device for 18 hours a day. The humidity was maintained at 30%, and the temperature was maintained at 25° C. The C57BL/6 mice were classified into 7 groups, depending on concentrations of the oral drug to be administered, as shown in Table 6.
(§2) After inducing experimental dry eye in the experimental mice, the drugs prepared in Example 3 were orally administered at 2 μL per dose once a day to the treatment groups (administered at 13:30 every day). In both eyes of all mice, at baseline, day 5, and day 10, tear volume and tear film break-up time were measured and corneal fluorescent staining score was examined. The mice were then sacrificed and tissue analysis was performed. Each group consisted of 6 animals.
The corneas, conjunctivas, and lacrimal glands were excised from both eyes (6 eyes) of 3 animals in each group required for tissue analysis. The samples were homogenized in PBS, and then the lysates were centrifuged at 10000×g for 10 minutes at 4° C. The supernatant was taken and the total amount of protein was measured using the Bradford assay. MDA was detected using an ELISA (Enzyme-linked immunosorbent assay) kit (manufactured by Quantikine, R&D Systems, Minneapolis, MN) containing capture and detection antibodies according to the manufacturer's manual. Using ELISA, MDA levels in the cornea, conjunctiva, and lacrimal gland were measured and recorded, respectively.

[2] = system: experimental dry eye (EDE)-induced C57BL/6 mouse model; assay: Tear volume (phenol red thread) in experimental dry eye mice
Procedure: as §1, §2
Tear volume was determined as follows. A phenol red-impregnated cotton thread was brought into contact for 20 seconds with the conjunctival sac on the lateral canthus side of each mouse, and the length was measured using SMZ microscopy. Then, the measured length was converted into a volume by substituting it into a given formula (see Villareal A L, Farley W, Pflugfelder S C. Effect of topical ophthalmic epinastine and olopatadine on tear volume in mice. Eye Contact Lens. 2006; 32:272-6).

[3] = system: experimental dry eye (EDE)-induced C57BL/6 mouse model; assay: Tear film break-up time in experimental dry eye mice
Procedure: as §1, §2
To evaluate tear film stability, which is known to be the most important clinical factor in dry eye, tear film break-up time was measured. 1 μl of 1% fluorescent dye (fluorescein) was instilled into the lower conjunctival sac of each mouse, and then each mouse was allowed to blink about three times. Subsequently, the eyes were gently made open, and then the time (seconds) until the first defect occurred in the stained tear film was measured using a slit lamp microscope equipped with a cobalt blue filter. This was repeated three times to obtain the average value.

[4] = system: experimental dry eye (EDE)-induced C57BL/6 mouse model; assay: Reactive oxygen species (DCF-DA) by flow cytometry
Procedure: as §1, §2
The cornea, conjunctiva, and lacrimal gland were excised, sectioned with scissors, and then shaken with 0.5 mg/mL of collagenase type D (manufactured by Roche Applied Science, Indianapolis, IN, USA) at 37° C. for 60 minutes. The tissue was ground and then allowed to pass through a cell strainer, followed by centrifugation. The number of CD4+IFN-γ+T cells was calculated by performing flow cytometry with fluorescein-conjugated anti-CD4 antibody and phycoerythrin-conjugated anti-IFN-γ antibody, and the number of DCF-DA cells was calculated using the CM-H2DCFDA kit (manufactured by Thermo Fisher Scientific, Waltham, MA, USA).

[5] = system: experimental dry eye (EDE)-induced C57BL/6 mouse model; assay: Corneal fluorescent staining score in experimental dry eye mice; conditions: for corneal fluorescent staining score: total 0 to 16 points
Procedure: as §1, §2
1 μL of 1% fluorescent dye was instilled into the eyes of each mouse, followed by washing with saline. Subsequently, the cornea of each mouse was observed using a slit lamp microscope to score the degree of epithelial injury (the extent to which fluorescent staining occurred).

[6] = system: experimental dry eye (EDE)-induced C57BL/6 mouse model; assay: Apoptosis (TUNEL immunofluorescent staining); conditions: for number of necrotic cells in the cornea: TUNEL staining
Procedure: as §1
In both eyes of all mice, at baseline, day 5, and day 10, tear volume and tear film break-up time were measured and corneal fluorescent staining score was examined. The mice were then sacrificed and tissue analysis was performed. Each group consisted of 6 animals.
The eye and accessory tissues were excised from one eye of one animal in each group, fixed in 4% paraformaldehyde, embedded in paraffin, and then TUNEL staining was performed on two cross-sectional pieces of the tissue. […]

[7] = conjunctiva, 2.5 mg/kg oral once a day
[8] = conjunctiva, 5 mg/kg oral once a day
[9] = conjunctiva, 10 mg/kg oral once a day
[10] = cornea, 2.5 mg/kg oral once a day
[11] = cornea, 5 mg/kg oral once a day
[12] = cornea, 10 mg/kg oral once a day
[13] = lacrimal gland, 2.5 mg/kg oral once a day
[14] = lacrimal gland, 5 mg/kg oral once a day
[15] = lacrimal gland, 10 mg/kg oral once a day
[16] = before drug administration, 2.5 mg/kg oral group
[17] = before drug administration, 5 mg/kg oral group
[18] = before drug administration, 10 mg/kg oral group
[19] = day 5 of administration, 2.5 mg/kg oral once a day
[20] = day 5 of administration, 5 mg/kg oral once a day
[21] = day 5 of administration, 10 mg/kg oral once a day
[22] = day 10 of administration, 2.5 mg/kg oral once a day
[23] = day 10 of administration, 5 mg/kg oral once a day
[24] = day 10 of administration, 10 mg/kg oral once a day
[25] = days 5 and 10, 0.05% CsA eye drop, SodA2 2.5, 5 and 10 mg/kg oral

B1: SodA2: variant Mn-SOD of Bacillus amyloliquefaciens GF423 sodA, Asn73 and Asn136 replaced with Asp, SEQ ID NO: 4; given orally shellac-coated, mixed with dextrin (protein, listed as Bacillus amyloliquefaciens)
chain: MAYKLPELPYAYDALEPHIDKETMTIHHTKHHNTYVTNLNKAIEGSALAEKSVDELVADLNAVPEDIRTAVRDDGGGHANHSLFWTLLSPNGGGEPTGELAEEIKSTFGSFDQFKEKFAAAAAGRFGSGWAWLVVDDGKLEITSTPNQDSPLSEGKTPVLGLDVWEHAYYLNYQNRRPDYISAFWNVVNWDEVARLYSEAK
modifications: shellac coating; dextrin mixture
B1 was tested, and the “MDA efficacy as compared with 0.05% CsA” value ([1]; conjunctiva) was “superior”, the “MDA efficacy as compared with 0.05% CsA” value ([1]; cornea, lacrimal gland) was “similar” and the “MDA concentration, Conjunctiva” value [1, 7] was 21.5 ± 9.26 pmol/mL. The “MDA concentration, Conjunctiva” value [1, 8] was 19.0 ± 7.17 pmol/mL, the “MDA concentration, Conjunctiva” value [1, 9] was 16.3 ± 9.12 pmol/mL and the “MDA concentration as compared with the EDE and vehicle groups” value ([1]; cornea, conjunctiva and lacrimal gland, CsA and oral SodA2 groups) was “decreased”. The “MDA concentration, Cornea” value [1, 10] was 22.7 ± 13.8 pmol/mL, the “MDA concentration, Cornea” value [1, 11] was 20.2 ± 14.0 pmol/mL and the “MDA concentration, Cornea” value [1, 12] was 18.5 ± 10.6 pmol/mL. The “MDA concentration, Lacrimal gland” value [1, 13] was 22.6 ± 7.72 pmol/mL, the “MDA concentration, Lacrimal gland” value [1, 14] was 18.8 ± 11.6 pmol/mL and the “MDA concentration, Lacrimal gland” value [1, 15] was 22.5 ± 11.4 pmol/mL. For the same molecule, the “tear volume as compared with the 0.05% CsA group” value ([2]; 5 mg/kg oral) was “more significant increase”, the tear volume [2, 16] was 0.024 ± 0.003 µL and the tear volume [2, 17] was 0.022 ± 0.004 µL. For the same molecule, the tear volume [2, 18] was 0.023 ± 0.004 µL, the tear volume [2, 19] was 0.026 ± 0.005 µL and the tear volume [2, 20] was 0.026 ± 0.005 µL. For the same molecule, the tear volume [2, 21] was 0.026 ± 0.005 µL, the tear volume [2, 22] was 0.027 ± 0.005 µL and the tear volume [2, 23] was 0.03 ± 0.005 µL. For the same molecule, the tear volume [2, 24] was 0.028 ± 0.004 µL, the “tear volume as compared with the EDE and vehicle groups” value [2, 25] was “significant increase” and the “tear film break-up time as compared with the 0.05% CsA group” value ([3]; 5 mg/kg and 10 mg/kg oral) was “similar”. The “tear film break-up time” value [3, 16] was 1.44 ± 0.15 s, the “tear film break-up time” value [3, 17] was 1.42 ± 0.16 s and the “tear film break-up time” value [3, 18] was 1.41 ± 0.25 s. For the same molecule, the “tear film break-up time” value [3, 19] was 1.23 ± 0.2 s, the “tear film break-up time” value [3, 20] was 1.31 ± 0.3 s and the “tear film break-up time” value [3, 21] was 1.28 ± 0.3 s. For the same molecule, the “tear film break-up time” value [3, 22] was 1.21 ± 0.3 s, the “tear film break-up time” value [3, 23] was 1.28 ± 0.3 s and the “tear film break-up time” value [3, 24] was 1.3 ± 0.3 s. For the same molecule, the “tear film break-up time as compared with the EDE and vehicle groups” value [3, 25] was “significant increase”, the “amount of reactive oxygen species generated” value (from here on “amount”) [4, 7] was 55.13±7.41% and the “amount” value [4, 8] was 57.63±8.16%. For the same molecule, the “amount” value [4, 9] was 53.29±1.19%, the “effect of decreasing generation of reactive oxygen species as compared with the CsA group” value ([4]; cornea, 2.5 mg/kg oral) was “better effect” and the “amount” value [4, 10] was 33.57±26.51%. For the same molecule, the “amount” value [4, 11] was 54.53±13.53%, the “amount” value [4, 12] was 57.38±23.43% and the “amount” value [4, 13] was 59.05±10.77%. The “amount” value [4, 14] was 56.03±6.37%, the “amount” value [4, 15] was 49.92±4.19% and the “corneal fluorescent staining score as compared with the 0.05% CsA group” value ([5]; 5 mg/kg oral) was “more significant decrease”. For the same molecule, the “corneal fluorescent staining score” value [5, 16] was 9.2±1.7 points, the “corneal fluorescent staining score” value [5, 17] was 9.4±1.7 points and the “corneal fluorescent staining score” value [5, 18] was 9.3±1.7 points. For the same molecule, the “corneal fluorescent staining score” value [5, 19] was 10.4±1.9 points, the “corneal fluorescent staining score” value [5, 20] was 9.9±2.5 points and the “corneal fluorescent staining score” value [5, 21] was 10.1±2.9 points. For the same molecule, the “corneal fluorescent staining score” value [5, 22] was 8.8±2 points, the “corneal fluorescent staining score” value [5, 23] was 7.8±1.9 points and the “corneal fluorescent staining score” value [5, 24] was 8.2±1.9 points. For the same molecule, the “corneal fluorescent staining score as compared with the EDE and vehicle groups” value [5, 25] was “significant decrease”, the “number of necrotic cells in the cornea” value ([6]; 2.5 mg/kg oral once a day) was 6.2±1.1 cells/100 μm and the “number of necrotic cells in the cornea” value ([6]; 5 mg/kg oral once a day) was 4.0±1.3 cells/100 μm. The “number of necrotic cells in the cornea” value ([6]; 10 mg/kg oral once a day) was 4.6±1.3 cells/100 μm and the “number of dead cells in the cornea as compared with the EDE and vehicle groups” value ([6]; groups treated with CsA and oral SodA2) was “significantly decreased”.
